Reference: publication PMC11381544 (Nature Communications, 2024)

Columns and labels:
[1] = tested on: P3H1 within the PCP complex; test: 2-OG dependent oxygenase activity; assay type: biochemical, human; settings: Succinate-Glo assay, Fig. 1g, Fig. 3f, Supplementary Fig. 1f
CRTAP and PPIB = test: Co-purification / SDS-PAGE of PCP complex with P3H1 mutants; assay type: binding, human; settings: co-expression with CRTAP and PPIB, Supplementary Fig. 1c

Molecule	2OG-Fe (II) oxygenase / P3H1 activity, in words [1]	PCP complex formation of P3H1 active mutants (CRTAP and PPIB)	2OG-Fe (II) oxygenase / P3H1 activity, in words ([1]; listed as W675L^P3H1)
PCP-P3H1D589A: PCP complex with P3H1 active-site mutation D589A (protein) EVESEAGWGMVTPDLLFAEGTAAYARGDWPGVVLSMERALRSRAALRALRLRCRTQCAADFPWELDPDWSPSPAQASGAAALRDLSFFGGLLRRAACLRRCLGPPAAHSLSEEMELEFRKRSPYNYLQVAYFKINKLEKAVAAAHTFFVGNPEHMEMQQNLDYYQTMSGVKEADFKDLETQPHMQEFRLGVRLYSEEQPQEAVPHLEAALQEYFVAYEECRALCEGPYDYDGYNYLEYNADLFQAITDHYIQVLNCKQNCVTELASHPSREKPFEDFLPSHYNYLQFAYYNIGNYTQAVECAKTYLLFFPNDEVMNQNLAYYAAMLGEEHTRSIGPRESAKEYRQRSLLEKELLFFAYDVFGIPFVDPDSWTPEEVIPKRLQEKQKSERETAVRISQEIGNLMKEIETLVEEKTKESLDVSRLTREGGPLLYEGISLTMNSKLLNGSQRVVMDGVISDHECQELQRLTNVAATSGDGYRGQTSPHTPNEKFYGVTVFKALKLGQEGKVPLQSAHLYYNVTEKVRRIMESYFRLDTPLYFSYSHLVCRTAIEEVQAERKDDSHPVHVANCILNAETLVCVKEPPAYTFRDYSAILYLNGDFDGGNFYFTELDAKTVTAEVQPQCGRAVGFSSGTENPHGVKAVTRGQRCAIALWFTLDPRHSERDRVQADDLVKMLFSPEEMDLSQEQPLDAQQGPPEPAQESLSGSESKPKDEL	significantly decreased 2OG-dependent oxygenase activities	could form PCP complex with CRTAP and PPIB	
PCP-P3H1H659A: PCP complex with P3H1 active-site mutation H659A (protein) EVESEAGWGMVTPDLLFAEGTAAYARGDWPGVVLSMERALRSRAALRALRLRCRTQCAADFPWELDPDWSPSPAQASGAAALRDLSFFGGLLRRAACLRRCLGPPAAHSLSEEMELEFRKRSPYNYLQVAYFKINKLEKAVAAAHTFFVGNPEHMEMQQNLDYYQTMSGVKEADFKDLETQPHMQEFRLGVRLYSEEQPQEAVPHLEAALQEYFVAYEECRALCEGPYDYDGYNYLEYNADLFQAITDHYIQVLNCKQNCVTELASHPSREKPFEDFLPSHYNYLQFAYYNIGNYTQAVECAKTYLLFFPNDEVMNQNLAYYAAMLGEEHTRSIGPRESAKEYRQRSLLEKELLFFAYDVFGIPFVDPDSWTPEEVIPKRLQEKQKSERETAVRISQEIGNLMKEIETLVEEKTKESLDVSRLTREGGPLLYEGISLTMNSKLLNGSQRVVMDGVISDHECQELQRLTNVAATSGDGYRGQTSPHTPNEKFYGVTVFKALKLGQEGKVPLQSAHLYYNVTEKVRRIMESYFRLDTPLYFSYSHLVCRTAIEEVQAERKDDSHPVHVDNCILNAETLVCVKEPPAYTFRDYSAILYLNGDFDGGNFYFTELDAKTVTAEVQPQCGRAVGFSSGTENPAGVKAVTRGQRCAIALWFTLDPRHSERDRVQADDLVKMLFSPEEMDLSQEQPLDAQQGPPEPAQESLSGSESKPKDEL	significantly decreased 2OG-dependent oxygenase activities	could form PCP complex with CRTAP and PPIB	
PCP-P3H1W675L: PCP complex with OI-related P3H1 mutation W675L near the active site (protein) EVESEAGWGMVTPDLLFAEGTAAYARGDWPGVVLSMERALRSRAALRALRLRCRTQCAADFPWELDPDWSPSPAQASGAAALRDLSFFGGLLRRAACLRRCLGPPAAHSLSEEMELEFRKRSPYNYLQVAYFKINKLEKAVAAAHTFFVGNPEHMEMQQNLDYYQTMSGVKEADFKDLETQPHMQEFRLGVRLYSEEQPQEAVPHLEAALQEYFVAYEECRALCEGPYDYDGYNYLEYNADLFQAITDHYIQVLNCKQNCVTELASHPSREKPFEDFLPSHYNYLQFAYYNIGNYTQAVECAKTYLLFFPNDEVMNQNLAYYAAMLGEEHTRSIGPRESAKEYRQRSLLEKELLFFAYDVFGIPFVDPDSWTPEEVIPKRLQEKQKSERETAVRISQEIGNLMKEIETLVEEKTKESLDVSRLTREGGPLLYEGISLTMNSKLLNGSQRVVMDGVISDHECQELQRLTNVAATSGDGYRGQTSPHTPNEKFYGVTVFKALKLGQEGKVPLQSAHLYYNVTEKVRRIMESYFRLDTPLYFSYSHLVCRTAIEEVQAERKDDSHPVHVDNCILNAETLVCVKEPPAYTFRDYSAILYLNGDFDGGNFYFTELDAKTVTAEVQPQCGRAVGFSSGTENPHGVKAVTRGQRCAIALLFTLDPRHSERDRVQADDLVKMLFSPEEMDLSQEQPLDAQQGPPEPAQESLSGSESKPKDEL			reduced enzymatic activities
PCP-P3H1R669A: PCP complex with P3H1 active-site mutation R669A (protein) EVESEAGWGMVTPDLLFAEGTAAYARGDWPGVVLSMERALRSRAALRALRLRCRTQCAADFPWELDPDWSPSPAQASGAAALRDLSFFGGLLRRAACLRRCLGPPAAHSLSEEMELEFRKRSPYNYLQVAYFKINKLEKAVAAAHTFFVGNPEHMEMQQNLDYYQTMSGVKEADFKDLETQPHMQEFRLGVRLYSEEQPQEAVPHLEAALQEYFVAYEECRALCEGPYDYDGYNYLEYNADLFQAITDHYIQVLNCKQNCVTELASHPSREKPFEDFLPSHYNYLQFAYYNIGNYTQAVECAKTYLLFFPNDEVMNQNLAYYAAMLGEEHTRSIGPRESAKEYRQRSLLEKELLFFAYDVFGIPFVDPDSWTPEEVIPKRLQEKQKSERETAVRISQEIGNLMKEIETLVEEKTKESLDVSRLTREGGPLLYEGISLTMNSKLLNGSQRVVMDGVISDHECQELQRLTNVAATSGDGYRGQTSPHTPNEKFYGVTVFKALKLGQEGKVPLQSAHLYYNVTEKVRRIMESYFRLDTPLYFSYSHLVCRTAIEEVQAERKDDSHPVHVDNCILNAETLVCVKEPPAYTFRDYSAILYLNGDFDGGNFYFTELDAKTVTAEVQPQCGRAVGFSSGTENPHGVKAVTRGQACAIALWFTLDPRHSERDRVQADDLVKMLFSPEEMDLSQEQPLDAQQGPPEPAQESLSGSESKPKDEL	significantly decreased 2OG-dependent oxygenase activities	could form PCP complex with CRTAP and PPIB	
PCP-P3H1H587A: PCP complex with P3H1 active-site mutation H587A (protein) EVESEAGWGMVTPDLLFAEGTAAYARGDWPGVVLSMERALRSRAALRALRLRCRTQCAADFPWELDPDWSPSPAQASGAAALRDLSFFGGLLRRAACLRRCLGPPAAHSLSEEMELEFRKRSPYNYLQVAYFKINKLEKAVAAAHTFFVGNPEHMEMQQNLDYYQTMSGVKEADFKDLETQPHMQEFRLGVRLYSEEQPQEAVPHLEAALQEYFVAYEECRALCEGPYDYDGYNYLEYNADLFQAITDHYIQVLNCKQNCVTELASHPSREKPFEDFLPSHYNYLQFAYYNIGNYTQAVECAKTYLLFFPNDEVMNQNLAYYAAMLGEEHTRSIGPRESAKEYRQRSLLEKELLFFAYDVFGIPFVDPDSWTPEEVIPKRLQEKQKSERETAVRISQEIGNLMKEIETLVEEKTKESLDVSRLTREGGPLLYEGISLTMNSKLLNGSQRVVMDGVISDHECQELQRLTNVAATSGDGYRGQTSPHTPNEKFYGVTVFKALKLGQEGKVPLQSAHLYYNVTEKVRRIMESYFRLDTPLYFSYSHLVCRTAIEEVQAERKDDSHPVAVDNCILNAETLVCVKEPPAYTFRDYSAILYLNGDFDGGNFYFTELDAKTVTAEVQPQCGRAVGFSSGTENPHGVKAVTRGQRCAIALWFTLDPRHSERDRVQADDLVKMLFSPEEMDLSQEQPLDAQQGPPEPAQESLSGSESKPKDEL	significantly decreased 2OG-dependent oxygenase activities	could form PCP complex with CRTAP and PPIB	
P3H1/CRTAP: purified P3H1/CRTAP binary complex obtained when PPIB was excluded from co-transfection (protein, left off: twin Strep tag, C-terminal, kept) chain 1: EVESEAGWGMVTPDLLFAEGTAAYARGDWPGVVLSMERALRSRAALRALRLRCRTQCAADFPWELDPDWSPSPAQASGAAALRDLSFFGGLLRRAACLRRCLGPPAAHSLSEEMELEFRKRSPYNYLQVAYFKINKLEKAVAAAHTFFVGNPEHMEMQQNLDYYQTMSGVKEADFKDLETQPHMQEFRLGVRLYSEEQPQEAVPHLEAALQEYFVAYEECRALCEGPYDYDGYNYLEYNADLFQAITDHYIQVLNCKQNCVTELASHPSREKPFEDFLPSHYNYLQFAYYNIGNYTQAVECAKTYLLFFPNDEVMNQNLAYYAAMLGEEHTRSIGPRESAKEYRQRSLLEKELLFFAYDVFGIPFVDPDSWTPEEVIPKRLQEKQKSERETAVRISQEIGNLMKEIETLVEEKTKESLDVSRLTREGGPLLYEGISLTMNSKLLNGSQRVVMDGVISDHECQELQRLTNVAATSGDGYRGQTSPHTPNEKFYGVTVFKALKLGQEGKVPLQSAHLYYNVTEKVRRIMESYFRLDTPLYFSYSHLVCRTAIEEVQAERKDDSHPVHVDNCILNAETLVCVKEPPAYTFRDYSAILYLNGDFDGGNFYFTELDAKTVTAEVQPQCGRAVGFSSGTENPHGVKAVTRGQRCAIALWFTLDPRHSERDRVQADDLVKMLFSPEEMDLSQEQPLDAQQGPPEPAQESLSGSESKPKDEL chain 2: QYERYSFRSFPRDELMPLESAYRHALDKYSGEHWAESVGYLEISLRLHRLLRDSEAFCHRNCSAAPQPEPAAGLASYPELRLFGGLLRRAHCLKRCKQGLPAFRQSQPSREVLADFQRREPYKFLQFAYFKANNLPKAIAAAHTFLLKHPDDEMMKRNMAYYKSLPGAEDYIKDLETKSYESLFIRAVRAYNGENWRTSITDMELALPDFFKAFYECLAACEGSREIKDFKDFYLSIADHYVEVLECKIQCEENLTPVIGGYPVEKFVATMYHYLQFAYYKLNDLKNAAPCAVSYLLFDQNDKVMQQNLVYYQYHRDTWGLSDEHFQPRPEAVQFFNVTTLQKELYDFAKENIMDDDEGEVVEYVDDLLELEETS	elevated P3H1 activities		
